T1: αβγENaC (Rattus norvegicus, UniProt P37089+P37090+P37091)
T1 construct: expressed in transfected cells; host or cells: Xenopus laevis oocytes (cRNA injection)
T1 sequence (P37089 1-698): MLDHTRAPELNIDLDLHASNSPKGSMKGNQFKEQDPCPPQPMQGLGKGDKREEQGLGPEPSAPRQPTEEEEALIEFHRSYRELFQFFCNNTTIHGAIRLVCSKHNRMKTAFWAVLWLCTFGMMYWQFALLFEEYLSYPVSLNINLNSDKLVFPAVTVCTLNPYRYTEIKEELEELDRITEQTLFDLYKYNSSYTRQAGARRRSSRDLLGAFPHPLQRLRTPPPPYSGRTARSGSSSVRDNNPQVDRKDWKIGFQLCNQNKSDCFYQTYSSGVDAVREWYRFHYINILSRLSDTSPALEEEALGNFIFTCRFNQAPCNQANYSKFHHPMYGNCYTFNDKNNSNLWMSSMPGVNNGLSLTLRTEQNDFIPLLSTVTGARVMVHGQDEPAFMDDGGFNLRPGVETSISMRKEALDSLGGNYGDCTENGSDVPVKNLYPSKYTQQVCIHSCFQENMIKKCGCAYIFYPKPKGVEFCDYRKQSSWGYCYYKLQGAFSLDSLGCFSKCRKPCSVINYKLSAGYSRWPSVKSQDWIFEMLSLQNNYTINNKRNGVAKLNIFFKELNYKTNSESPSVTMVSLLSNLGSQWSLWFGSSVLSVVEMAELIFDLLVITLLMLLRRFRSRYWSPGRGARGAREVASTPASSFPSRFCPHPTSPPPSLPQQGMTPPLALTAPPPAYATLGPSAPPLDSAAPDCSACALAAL
T1 sequence (P37090 1-638): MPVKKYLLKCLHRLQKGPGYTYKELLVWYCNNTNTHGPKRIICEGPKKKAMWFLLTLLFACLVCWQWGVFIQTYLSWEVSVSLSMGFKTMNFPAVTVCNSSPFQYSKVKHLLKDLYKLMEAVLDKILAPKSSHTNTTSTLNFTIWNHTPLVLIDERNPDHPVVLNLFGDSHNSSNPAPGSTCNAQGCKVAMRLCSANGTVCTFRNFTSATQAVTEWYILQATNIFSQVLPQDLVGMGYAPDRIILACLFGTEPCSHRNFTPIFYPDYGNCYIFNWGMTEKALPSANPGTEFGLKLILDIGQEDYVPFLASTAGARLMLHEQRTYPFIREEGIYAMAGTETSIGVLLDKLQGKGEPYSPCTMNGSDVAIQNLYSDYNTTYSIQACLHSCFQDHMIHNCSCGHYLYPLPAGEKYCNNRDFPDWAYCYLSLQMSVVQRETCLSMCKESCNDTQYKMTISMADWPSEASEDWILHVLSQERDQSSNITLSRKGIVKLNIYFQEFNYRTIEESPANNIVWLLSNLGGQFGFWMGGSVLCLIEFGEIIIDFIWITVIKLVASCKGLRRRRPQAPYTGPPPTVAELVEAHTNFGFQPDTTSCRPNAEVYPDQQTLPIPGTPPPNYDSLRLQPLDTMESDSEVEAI
T1 sequence (P37091 1-650): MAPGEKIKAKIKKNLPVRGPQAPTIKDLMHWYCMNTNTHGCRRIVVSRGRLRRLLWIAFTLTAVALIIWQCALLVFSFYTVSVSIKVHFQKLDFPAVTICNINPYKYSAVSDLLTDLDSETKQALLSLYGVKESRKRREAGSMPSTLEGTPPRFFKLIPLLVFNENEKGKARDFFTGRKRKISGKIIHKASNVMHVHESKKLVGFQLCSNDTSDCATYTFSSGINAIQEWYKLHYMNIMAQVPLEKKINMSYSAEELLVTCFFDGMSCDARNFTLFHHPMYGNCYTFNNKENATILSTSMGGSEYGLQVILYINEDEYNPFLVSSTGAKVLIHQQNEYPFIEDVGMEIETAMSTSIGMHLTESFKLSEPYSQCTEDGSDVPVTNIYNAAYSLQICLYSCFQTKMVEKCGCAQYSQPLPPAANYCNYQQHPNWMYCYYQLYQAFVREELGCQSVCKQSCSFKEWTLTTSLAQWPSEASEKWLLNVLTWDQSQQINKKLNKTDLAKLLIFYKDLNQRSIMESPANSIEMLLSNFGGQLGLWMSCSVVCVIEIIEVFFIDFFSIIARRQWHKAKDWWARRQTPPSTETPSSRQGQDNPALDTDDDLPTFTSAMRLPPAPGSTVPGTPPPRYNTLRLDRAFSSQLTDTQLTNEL

B1: SPLUNC1: human SPLUNC1, 256 amino acid secreted PLUNC protein (SEQ ID NO:1); rSPLUNC1 = V5/6His-tagged protein purified from HEK293 media (protein, listed as Homo sapiens)
chain: MFQTGGLIVFYGLLAQTMAQFGGLPVPLDQTLPLNVNPALPLSPTGLAGSLTNALSNGLLSGGLLGILENLPLLDILKPGGGTSGGLLGGLLGKVTSVIPGLNNIIDIKVTDPQLLELGLVQSPDGHRLYVTIPLGIKLQVNTPLVGASLLRLAVKLDITAEILAVRDKQERIHLVLGDCTHSPGSLQISLLDGLGPLPIQGLLDSLTGILNKVLPELVQGNVCPLVNEVLRGLDITLVHDIVNMLIHGLQFVIKV
modifications: V5/6His tag
notes: rSPLUNC1 = V5/6His-tagged protein purified from HEK293 media

Target: T1, αβγENaC
Experiment: Amiloride-sensitive whole cell current in Xenopus laevis oocytes expressing ENaC (two electrode voltage clamp)
Type: cell-based
Protocol: Oocyte studies. Xenopus laevis oocytes were harvested and injected as described (Donaldson, et al., J. Biol. Chem. 277:8338 (2002)). Defolliculated healthy stage V-VI oocytes were injected with 0.3 ng of cRNA of each ENaC subunit. Injected oocytes were kept in modified Barth's saline (in mM: 88 NaCl, 1 KCl, 2.4 NaHCO3, 0.3 Ca(NO3)2, 0.41 CaCl2, 0.82 MgSO4, and 15 HEPES, adjusted to pH 7.35 with Tris). Oocytes were studied 24 hr after injection using the two electrode voltage clamp technique as previously described (Donaldson, et al., J. Biol. Chem. 277:8338 (2002)). Oocytes were clamped at a holding potential of […]. The change in amiloride-sensitive whole cell current as an indicator of ENaC activity was determined by subtracting the corresponding current value measured in the presence of 10 μM amiloride from that measured before the application of amiloride.

Molecule | ENaC activity on trypsin exposure (oocytes) | ability of CAP1 and CAP2 to activate ENaC (ENaC ± SPLUNC1 co-expressed with prostasin (CAP1) and CAP2) | inhibition of ENaC by full-length and truncated SPLUNC1 (oocyte current inhibition assay, pH 7.4, all p<0.0001) | trypsin stimulation of ENaC activity (trypsin-exposed oocytes ± SPLUNC1)
trypsin [reference compound] | increased ENaC activity | – | – | –
B1 | – | significantly reduced | Significant inhibition | attenuated

From patent US9549967B2, “Regulation of sodium channels by PLUNC proteins” (The University of North Carolina at Chapel Hill, priority 2009, dated 2017)
